Target: EGFR (human) (UniProt P00533)
Assay: cell-based or functional assay

## cetuximab-saporin (antibody)
  cell killing (MTS) IC50, titrated alone, MDA-MB-468 cells (EGFR++): 300 pM

— patent US20230248844A1, “C[…] ADC OR AN AOC COMPRISING A VHH, AND A SAPONIN OR A LIGAND-SAPONIN CONJUGATE” (SAPREME TECHNOLOGIES B.V., priority 2020, published 2023)
